Experimental data taken from article PMC13132431, “Epigenetic gene regulation is controlled by distinct regulatory complexes utilizing specialized paralogs of TELOMERE REPEAT BINDING FACTORS”.

T1: HIS-TRB3 (Arabidopsis thaliana, UniProt Q9M2X3 1-295)
T1 sequence: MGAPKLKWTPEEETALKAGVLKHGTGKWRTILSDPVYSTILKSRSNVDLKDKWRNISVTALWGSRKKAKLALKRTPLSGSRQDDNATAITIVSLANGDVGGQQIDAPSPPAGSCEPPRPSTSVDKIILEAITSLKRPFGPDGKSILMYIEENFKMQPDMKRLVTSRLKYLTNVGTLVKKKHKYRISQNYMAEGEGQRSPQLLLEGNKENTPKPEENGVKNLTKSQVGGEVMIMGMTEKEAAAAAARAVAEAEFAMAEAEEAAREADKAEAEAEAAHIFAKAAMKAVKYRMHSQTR

T2: HIS-TRB1 (Arabidopsis thaliana, UniProt Q8VWK4 1-300)
T2 sequence: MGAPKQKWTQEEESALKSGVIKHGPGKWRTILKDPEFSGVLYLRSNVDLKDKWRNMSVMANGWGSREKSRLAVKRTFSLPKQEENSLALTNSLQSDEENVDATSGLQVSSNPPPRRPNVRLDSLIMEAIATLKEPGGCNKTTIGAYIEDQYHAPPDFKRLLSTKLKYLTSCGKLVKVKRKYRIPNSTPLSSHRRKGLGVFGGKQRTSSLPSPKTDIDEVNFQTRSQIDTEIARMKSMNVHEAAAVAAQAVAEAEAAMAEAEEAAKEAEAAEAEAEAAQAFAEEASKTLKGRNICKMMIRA


Columns and labels:
[1] = molecular target: T1, HIS-TRB3; experiment: MST; MST: 50 mM NaPO4, 300 mM NaCl, pH 7.5, 0.05% Tween 20, 1.25 mg/ml BSA; 20 nM Cy3-dsDNA, 260 pM-8.5 uM protein; 10 min at RT; conditions: protein: recombinant; tags: 6xHis (pET-28b); label: 5'-Cy3 on both strands; blunt
[2] = molecular target: T2, HIS-TRB1; experiment: as above; conditions: protein: recombinant; tags: 6xHis (pET-28b); label: 5'-Cy3 on both strands; blunt

| Binder | Kd [1] | Kd [2] | binding result [2] |
| --- | --- | --- | --- |
| R4 telo-box (4x repeat) (dsDNA) DNA 1: GGTTTAGGGTTTAGGGTTTAGGGTTTAG DNA 2: CTAAACCCTAAACCCTAAACCCTAAACC | 531 ± 30 nM | 567 ± 180 nM | – |
| (C)AACCTAA (dsDNA) DNA 1: CATCATGGCAACCTAAGGCTGGTACTAG DNA 2: CTAGTACCAGCCTTAGGTTGCCATGATG | 298 ± 48 nM | 4900 ± 1000 nM | – |
| (C)GACCTAA (dsDNA) DNA 1: CATCATGGCGACCTAAGGCTGGTACTAG DNA 2: CTAGTACCAGCCTTAGGTCGCCATGATG | 652 ± 64 nM | – | no binding |
| proSEP3-telo-box (dsDNA) DNA 1: TTTAAATGTTAGGGTTTTTTGTAGGATT DNA 2: AATCCTACAAAAAACCCTAACATTTAAA | 640 ± 19 nM | – | no binding |
